“Also recorded” adds a separate entry of the source.

For assay [1], the target named is T1, purified human complement Factor H (Homo sapiens, UniProt P08603).
T1 construct: purchased Quidel Corporation (San Diego, Calif.)
The assay is described as follows: Steady state fluorescence titration of Factor H with SIBLINGS proteins. To be noted: fluorescence quenching at 347 nm, excitation 295 nm. The class given is binding. The source says:
FIGS. 3A and 3B are graphs which show the result of a titration of Factor H with BSP.
The salient structural features of Factor H include 20 short consensus repeats (SCRs) that contain four cysteine residues forming two disulfide bonds per repeat. In addition, each SCR contains one conserved tryptophan residue per repeat and Factor H is known to interact with several sialic acid-containing proteins. Therefore, binding interactions between members of the SIBLINGS family of proteins and Factor H can be studied by steady state fluorescence.
Steady state fluorescence studies were accomplished by titrating purified human complement Factor H with rBSP, rOPN, and rDMP1 followed by excitation at 295 nm and monitoring emission between 300 and 450 nm. The emission profile of Factor H alone yields a peak at 347 nm. The addition of rBSP, rOPN, or rDMP1 in nm increments causes a relative fluorescent intensity quenching. Conversion of the fluorescent intensity titration into a binding curve by determining the fraction of binding sites occupied as the fractional change in fluorescence quenching at 347 nm yields a saturable binding curve. […] Given that normal serum concentration of Factor H is ^˜0.5 mg/mL it is probable that virtually all BSP, OPN, and DMP1 in serum will be complexed with Factor H.

Assay [2] concerns Murine erythroleukemia (MEL) cells. Description: Alternate complement mediated cell lysis assay, MEL cells with normal human serum. It is filed as cell-based. To be noted: for protection of MEL cells from complement-mediated lysis (cell viability): 10 μg/mL protein 10 min, normal human serum 1:10, 2 h, trypan blue and MTT. As for the experimental part: MEL cells were rinsed three times with GVB-MgEGTA buffer, resuspended in GVB-MgEGTA at a density of 5×10^6 cells/mL, and incubated at 37° C. with different concentrations of normal human serum. After 2 hrs, cells were harvested for trypan blue exclusion assay. The thiazolium blue assay was carried out at identical serum dilutions and cell viability was determined by absorbance at 560 nm. Each data point represents the average of three measurements. The error bars represent the standard deviation of the mean (A). MEL cells in GVB-MgEGTA buffer were incubated with 10 μg/mL of either rBSP or rOPN for 10 minutes at 37° C. Normal human serum was then added at a dilution of 1:10 and the cells were returned to 37° C., incubated for 2 hours and cell viability was determined by trypan blue and thiazolyl blue (MTT) reduction assays (B). Data from 3–7 separate experiments, with treatment replicates in triplicate, was combined to yield mean values. Error bars represent the standard error of the mean. N=number of experiments combined.
MEL cells prepared as in FIG. 8 were treated with normal rBSP (10 μg/mL), rBSP whose RGD sequence had been mutated to KAE ([…]), and either GRGDS (SEQ ID NO: 10) peptide (400 μM) followed by rBSP or an αVβ3 antibody (1:4000) followed by rBSP for 10 minutes prior to the addition of normal human serum. The cells were then incubated for […] after which cell viability determined using the MTT assay (A). A cohort of MEL cells were pretreated with rOPN (10 μg/mL) alone, GRGDS (SEQ ID NO: 10) peptide followed by rOPN, the αVβ3 antibody followed by rOPN, or an anti-CD44 antibody (Chemicon, Co.) followed by rOPN, or hyaluronan (HA) followed by rOPN (B). Cells were then treated with normal human serum and viability assayed as in FIG. 8. […] The data represents the mean and standard error of the mean for three separate experiments. Statistical significance was determined by analysis of variance. Percent cell viability was determined using A560 absorbance values of various conditions and a control where no serum had been added (100% viable). The cross-hatched region represents that range of values observed when normal human serum (1:10) alone was added (maximal cell death).
The first model system employed was a murine erythroleukemia (MEL) cell line which when incubated with normal human serum can be readily assayed for alternate complement pathway (ACP)-mediated cell lysis (Varnet et al., Curr. Opin. Cell Biol., 8(5):724–730, 1996). Cell survival was measured by both trypan blue dye exclusion and by thiazolyl blue (MTT) reduction by living mitochondria. Titration with dilutions of normal human serum and time courses were carried out to define optimal incubation conditions. At 1:10 dilution, human serum totally lysed the MEL cells as measured by both assay systems (FIG. 8A).
Murine erytliroleukemia (MEL) cells (a gift of Dr. Marilyn Farquhar, Univ. CA San Diego.) grown in DMEM containing 10% fetal bovine serum and 4 mM glutamine were rinsed three times with gelatin veronal buffer with Mg2^+ and EGTA (GVB-MgEGTA, Sigma, St. Louis, Mo.). Cells were resuspended in GVB-MgEGTA at a density of 5×10^6 cells/mL and incubated at 37° C. with different concentrations of normal human serum diluted in GVB-MgEGTA. […] Cell viability was determined spectrophotometrically by absorbance at 560 nm. […]

Assay [3] relates to MCF-7 breast cancer cells. The assay is described as follows: Alternate complement pathway cell lysis assay with guinea pig serum, MCF-7. The class given is cell-based, human. To be noted: MCF-7, 10 μg/mL, guinea pig serum 1:5, trypan blue and MTT. As for the experimental part: (§1) Human cancer cell lines, MCF-7 (A) and U-266 (B) cells were rinsed three time with GVB-MgEGTA buffer and subsequently treated exactly as in the MEL cell complement-mediated cell lysis assay described above except complement active guinea pig serum (GPS) was substituted for human serum. Three different dilutions of GPS were assayed. For cultures pretreated with 10 μg/mL BSP or OPN, the dilution of GPS used was 1:5. Cell viability was determined by both trypan blue exclusion (solid bar) and MTT (open bar) assay. The bars represent the mean values of triplicate samples and the error bars are the standard deviation values.
(§2) Murine erytliroleukemia (MEL) cells (a gift of Dr. Marilyn Farquhar, Univ. CA San Diego.) grown in DMEM containing 10% fetal bovine serum and 4 mM glutamine were rinsed three times with gelatin veronal buffer with Mg2^+ and EGTA (GVB-MgEGTA, Sigma, St. Louis, Mo.). Cells were resuspended in GVB-MgEGTA at a density of 5×10^6 cells/mL and incubated at 37° C. with different concentrations of normal human serum diluted in GVB-MgEGTA. […] Cell viability was determined spectrophotometrically by absorbance at 560 nm. […] Normal human serum collected for good complement activity was then added at a dilution of 1:10 and the cells returned to 37° C. for 2 hours and cell viability was determined by trypan blue-exclusion and MTT assays. […]

The next assay has as its system U-266 myeloma cells. Description: Alternate complement pathway cell lysis assay with guinea pig serum, U-266. It is filed as cell-based, human. To be noted: U-266, 10 μg/mL, guinea pig serum 1:5, trypan blue and MTT. As for the experimental part: as §1, §2

T1 sequence (P08603 19-1231): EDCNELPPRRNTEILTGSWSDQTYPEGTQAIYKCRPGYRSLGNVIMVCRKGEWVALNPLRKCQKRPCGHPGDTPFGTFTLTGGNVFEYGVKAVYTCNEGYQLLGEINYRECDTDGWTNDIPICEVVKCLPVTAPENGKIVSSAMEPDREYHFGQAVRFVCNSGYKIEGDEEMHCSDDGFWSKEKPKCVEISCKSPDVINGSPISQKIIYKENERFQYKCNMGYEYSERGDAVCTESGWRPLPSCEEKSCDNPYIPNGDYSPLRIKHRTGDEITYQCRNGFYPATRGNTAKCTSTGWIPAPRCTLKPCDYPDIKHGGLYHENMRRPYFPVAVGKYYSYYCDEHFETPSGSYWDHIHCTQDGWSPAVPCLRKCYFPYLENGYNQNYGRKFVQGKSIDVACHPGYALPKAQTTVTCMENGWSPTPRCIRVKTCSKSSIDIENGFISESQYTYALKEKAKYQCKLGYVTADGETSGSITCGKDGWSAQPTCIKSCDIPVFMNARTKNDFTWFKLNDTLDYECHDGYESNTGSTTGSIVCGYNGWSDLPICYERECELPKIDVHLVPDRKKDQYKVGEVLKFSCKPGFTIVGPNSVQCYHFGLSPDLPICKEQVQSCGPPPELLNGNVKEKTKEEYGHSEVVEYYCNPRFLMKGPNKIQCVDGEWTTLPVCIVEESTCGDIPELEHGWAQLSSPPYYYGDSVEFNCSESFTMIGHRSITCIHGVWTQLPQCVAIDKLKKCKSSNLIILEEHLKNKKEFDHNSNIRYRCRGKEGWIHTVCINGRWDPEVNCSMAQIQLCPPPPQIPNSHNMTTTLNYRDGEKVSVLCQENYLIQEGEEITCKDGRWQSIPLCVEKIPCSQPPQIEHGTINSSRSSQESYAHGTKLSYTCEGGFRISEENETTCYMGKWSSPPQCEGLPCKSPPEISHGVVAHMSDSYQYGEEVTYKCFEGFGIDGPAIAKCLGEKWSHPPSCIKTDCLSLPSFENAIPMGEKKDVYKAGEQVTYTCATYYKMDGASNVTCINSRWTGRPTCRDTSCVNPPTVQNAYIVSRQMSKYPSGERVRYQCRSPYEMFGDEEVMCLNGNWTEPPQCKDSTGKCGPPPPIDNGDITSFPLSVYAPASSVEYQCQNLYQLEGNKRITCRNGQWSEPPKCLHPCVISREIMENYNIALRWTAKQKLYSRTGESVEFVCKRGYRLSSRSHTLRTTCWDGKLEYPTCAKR

B1: DMP1: dentin matrix protein, SIBLINGS family member; recombinant from adenoviral construct (protein)
chain: LPVTRYQNNESEDSEEWKGHLAQAPTPPLESSESSEGSKVSSEEQANEDPSDSTQSEEGLGSDDHQYIYRLAGGFSRSTGKGGDDKDDDEDDSGDDTFGDDDSGPGPKDRQEGGNSRLGSDEDSDDTIQASEESAPQGQDSAQDTTSESRELDNEDRVDSKPEGGDSTQESESEEHWVGGGSDGESSHGDGSELDDEGMQSDDPESIRSERGNSRMNSAGMKSKESGENSEQANTQDSGGSQLLEHPSRKIFRKSRISEEDDRSELDDNNTMEEVKSDSTENSNSRDTGLSQPRRDSKGDSQEDSKENLSQEESQNVDGPSSESSQEANLSSQENSSESQEEVVSESRGDNPDPTTSYVEDQEDSDSSEEDSSHTLSHSKSESREEQADSESSESLNFSEESPESPEDENSSSQEGLQSHSSSAESQSEESHSEEDDSDSQDSSRSKEDSNSTESKSSSEEDGQLKNIEIESRKLTVDAYHNKPIGDQDDNDCQDGY
For the molecule B1, the “binding constant with Factor H” value in assay [1] was “in the nM range”. Besides, in assay [2], the “dose relation of protection of MEL cells from alternate complement pathway-mediated lysis” value is listed as “dose related responses” and the “protection of MEL cells from complement-mediated lysis (cell viability)” value is “conferred protection; also recorded: protect the cells”.

B2: BSP: Bone sialoprotein, phosphorylated and sulfated integrin-binding glycoprotein, SIBLINGS family; recombinant form from adenovirus-infected human marrow stromal fibroblasts (protein)
chain: FSMKNLHRRVKIEDSEENGVFKYRPRYYLYKHAYFYPHLKRFPVQGSSDSSEENGDDSSEEEEEEEETSNEGENNEESNEDEDSEAENTTLSATTLGYGEDATPGTGYTGLAAIQLPKKAGDITNKATKEKESDEEEEEEEEGNENEESEAEVDENEQGINGTSTNSTEAENGNGSSGGDNGEEGEEESVTGANAEGTTETGGQGKGTSKTTTSPNGGFEPTTPPQVYRTTSPPFGKTTTVEYEGEYEYTGVNEYDNGYEIYESENGEPRGDNYRAYEDEYSYFKGQGYDGYDGQNYYHHQ
As for B2, the “binding constant with Factor H” value in assay [1] was “in the nM range”. Further, in assay [2], the “dose relation of protection of MEL cells from alternate complement pathway-mediated lysis” value is reported as “dose related responses”. Moreover, the entries for the “protection of MEL cells from complement-mediated lysis (cell viability)” value in assay [2] and in assay [2] (listed as recombinant BSP) were “protect” and “completely protected”, respectively. The “survival and protection from complement-mediated cell lysis” value in assay [3] is “enhanced survival and protection”; in the assay with U-266 myeloma cells it was “enhanced survival and protection”.

The values are drawn from patent US6995018B1, “Complex formed by N-linked glycoproteins (SIBLINGS)and Factor H” (The United States of America as represented by the …, priority 1999, dated 2006).
